# Test results taken from patent publication US20120149889.
# pKd: −log10 of the molar value.
# Molecular target: CCHF Peptide 1 (envelope surface peptide) (Crimean-Congo hemorrhagic fever virus) (UniProt Q8JSZ3)
# Experiment: SPR
# Details: not given
# Sequence of UniProt Q8JSZ3 (Q8JSZ3 whole entry, looked up): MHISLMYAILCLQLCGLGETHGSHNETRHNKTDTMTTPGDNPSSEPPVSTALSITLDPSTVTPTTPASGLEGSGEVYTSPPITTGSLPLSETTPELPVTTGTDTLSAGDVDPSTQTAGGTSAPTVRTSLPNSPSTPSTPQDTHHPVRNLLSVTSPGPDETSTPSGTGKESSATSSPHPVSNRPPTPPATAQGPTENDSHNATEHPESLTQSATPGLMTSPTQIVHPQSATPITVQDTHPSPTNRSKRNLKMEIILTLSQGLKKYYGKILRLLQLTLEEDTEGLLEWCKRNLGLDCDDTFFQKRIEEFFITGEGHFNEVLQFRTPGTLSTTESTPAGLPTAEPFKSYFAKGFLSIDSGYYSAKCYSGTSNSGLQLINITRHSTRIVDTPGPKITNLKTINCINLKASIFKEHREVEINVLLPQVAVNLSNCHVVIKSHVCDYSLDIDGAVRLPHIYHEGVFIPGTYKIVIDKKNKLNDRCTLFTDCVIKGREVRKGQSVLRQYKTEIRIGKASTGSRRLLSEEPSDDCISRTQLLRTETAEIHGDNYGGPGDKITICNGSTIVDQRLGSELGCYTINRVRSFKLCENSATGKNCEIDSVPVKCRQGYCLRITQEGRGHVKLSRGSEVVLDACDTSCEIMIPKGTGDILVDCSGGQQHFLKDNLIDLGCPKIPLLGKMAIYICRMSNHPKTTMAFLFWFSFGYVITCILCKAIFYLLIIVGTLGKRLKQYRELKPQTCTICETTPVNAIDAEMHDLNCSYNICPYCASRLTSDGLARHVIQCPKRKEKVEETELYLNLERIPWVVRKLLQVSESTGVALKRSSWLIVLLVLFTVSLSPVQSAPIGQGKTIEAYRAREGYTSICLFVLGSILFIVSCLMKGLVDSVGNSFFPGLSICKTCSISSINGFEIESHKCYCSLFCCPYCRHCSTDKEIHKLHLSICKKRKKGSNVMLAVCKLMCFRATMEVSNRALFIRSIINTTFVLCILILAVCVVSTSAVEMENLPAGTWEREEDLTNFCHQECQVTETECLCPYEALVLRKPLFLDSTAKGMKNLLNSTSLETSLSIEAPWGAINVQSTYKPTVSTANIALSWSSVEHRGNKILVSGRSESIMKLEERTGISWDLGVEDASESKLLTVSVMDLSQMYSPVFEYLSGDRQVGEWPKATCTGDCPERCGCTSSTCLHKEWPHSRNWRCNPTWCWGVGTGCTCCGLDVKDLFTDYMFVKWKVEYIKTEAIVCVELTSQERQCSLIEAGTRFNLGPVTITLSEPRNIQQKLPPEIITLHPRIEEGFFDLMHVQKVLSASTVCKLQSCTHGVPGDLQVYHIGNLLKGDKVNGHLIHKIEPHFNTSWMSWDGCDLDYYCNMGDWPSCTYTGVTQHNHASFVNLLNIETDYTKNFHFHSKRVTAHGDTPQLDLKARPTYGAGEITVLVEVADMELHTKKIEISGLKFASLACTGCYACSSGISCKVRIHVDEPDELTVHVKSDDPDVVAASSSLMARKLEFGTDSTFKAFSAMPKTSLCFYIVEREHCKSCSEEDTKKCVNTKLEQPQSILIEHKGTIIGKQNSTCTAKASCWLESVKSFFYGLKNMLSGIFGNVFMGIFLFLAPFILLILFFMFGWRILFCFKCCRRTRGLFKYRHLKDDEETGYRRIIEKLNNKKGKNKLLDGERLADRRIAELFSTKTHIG
row,Sequence,pKd
1,ATACGGGAGCCAACACCATGGTGACGGACCTTGAGAGCAAGACCGCTACGATTCAGAGCAGGTGTGACGGAT [C1-9F],11.09

# Test system: CCHF envelope peptides (individual peptide not specified) (Crimean-Congo hemorrhagic fever virus)
# Experiment: ELONA
# Details: not given
row,Sequence,binding signal
1,ATACGGGAGCCAACACCAATGAGAGCAAAGATCCCAGGATACACTAATCCCTGTAGAGCAGGTGTGACGGAT [C1-3F],1.85 A405
2,ATACGGGAGCCAACACCACAGACACCGAATGAGCAACACAACAACGGGACCCGTAGAGCAGGTGTGACGGAT [C2-8F],1.65 A405
3,ATACGGGAGCCAACACCACAGCTGACAATAGAAGGATATCCTGGGTACCGATGCAGAGCAGGTGTGACGGAT [C3-4F],2.67 A405
4,ATACGGGAGCCAACACCATAGTGTTGGGCCAATACGGTAACGTGTCCTTGGAGAGCAGGTGTGACGGAT [C1-1/7F],1.9 A405
5,ATACGGGAGCCAACACCATGGTGACGGACCTTGAGAGCAAGACCGCTACGATTCAGAGCAGGTGTGACGGAT [C1-9F],2.24 A405
6,ATCCGTCACACCTGCTCTACGGCCCTGCACCACTTATTCTAGGCAGTGTTCTTCTGGTGTTGGCTCCCGTAT [C1-10R],1.62 A405
7,ATCCGTCACACCTGCTCTATACCAACGGGGGACGGTCTGAGCTAGTGACGCCCGTGGTGTTGGCTCCCGTAT [C3-7R],1.5 A405
8,ATCCGTCACACCTGCTCTATGAGTCTATCCAGTTCTAAAAGTTCCGCTCTTTATTGGTGTTGGCTCCCGTAT [C1-1R],1.99 A405
9,ATCCGTCACACCTGCTCTCCAAGGACACGTCACCGTATTGGCCCAACACTATGGTGTTGGCTCCCGTAT [C3-8R],1.48 A405
10,ATCCGTCACACCTGCTCTCCAAGGACACGTTACCGTATTGGCCCAACACTATGGTGTTGGCTCCCGTAT [C1-1/7R],2.05 A405
11,ATCCGTCACACCTGCTCTCGGGACGCGAGCGGCCTGCGGGAACCAGGCGGGGGCTGGTGTTGGCTCCCGTAT [C3-6R],2.48 A405
12,ATCCGTCACACCTGCTCTGAATCGTAGCGGTCTTGCTCTCAAGGTCCGTCACCATGGTGTTGGCTCCCGTAT [C1-9R],1.56 A405
13,ATCCGTCACACCTGCTCTGCAAAGAGGTCGTAGTGCCGTGTCCGGTCGGATACCTGGTGTTGGCTCCCGTAT [C2-10R],1.66 A405
14,ATCCGTCACACCTGCTCTGCATCGGTACCCAGGATATCCTTCTATTGTCAGCTGTGGTGTTGGCTCCCGTAT [C3-4R],2.47 A405
15,ATCCGTCACACCTGCTCTGGGCAGCACTACCGGTGTCGTTGTGTTGGCATTTCTTGGTGTTGGCTCCCGTAT [C1-6R],1.95 A405

# Test system: TBEV target (not specified) (Tick-borne encephalitis virus)
# Experiment: ELONA
# Details: not given
row,Sequence,binding signal
1,ATACGGGAGCCAACACCACACACAGAGCGCCATGGACTCAGTCAGATGTGATGTAGAGCAGGTGTGACGGAT [TBEV-8F],1.85 A405
2,ATACGGGAGCCAACACCACACGAACGGAGTGCACCGGGGAAGATACTCCAACGCAGAGCAGGTGTGACGGAT [TBEV-3F],1.8 A405
3,ATACGGGAGCCAACACCACCATGCCCCTTTAAGTGAATAGACTAGTGGCCGTTGAGAGCAGGTGTGACGGAT [TBEV-5F],2.06 A405
4,ATACGGGAGCCAACACCACCGCAGGAGTCCATCAGGGGTTGGCAGTCAGCGCTCAGAGCAGGTGTGACGGAT [TBEV-2F],2.31 A405
5,ATACGGGAGCCAACACCACTCGGCACCGCCCTTCCGTATCGGCGAGTAACGTACAGAGCAGGTGTGACGGAT [TBEV-1F],1.94 A405
6,ATACGGGAGCCAACACCAGAGACGTCTTAGCCTCGCGATCCCGTCCGTTGGCCCAGAGCAGGTGTGACGGAT [TBEV-6F],2.07 A405
7,ATACGGGAGCCAACACCAGCCAATTATACAGGTAGGTCAAAAAAGTTTAGGGGAAGAGCAGGTGTGACGGAT [TBEV-4F],1.88 A405
8,ATACGGGAGCCAACACCATCCTCCCGCGACGTCTGGAGAACAGCCTCTACTTTAAGAGCAGGTGTGACGGAT [TBEV-7F],2.02 A405
9,ATACGGGAGCCAACACCATTGACTTGGCCGTCTCTGACCCCTAGCACCCCTCGCAGAGCAGGTGTGACGGAT [TBEV-10F],1.95 A405
10,ATCCGTCACACCTGCTCTACATCACATCTGACTGAGTCCATGGCGCTCTGTGTGTGGTGTTGGCTCCCGTAT [TBEV-8R],2.43 A405
11,ATCCGTCACACCTGCTCTCAACGGCCACTAGTCTATTCACTTAAAGGGGCATGGTGGTGTTGGCTCCCGTAT [TBEV-5R],1.93 A405
12,ATCCGTCACACCTGCTCTGAGCGCTGACTGCCAACCCCTGATGGACTCCTGCGGTGGTGTTGGCTCCCGTAT [TBEV-2R],2.6 A405
13,ATCCGTCACACCTGCTCTGCGAGGGGTGCTAGGGGTCAGAGACGGCCAAGTCAATGGTGTTGGCTCCCGTAT [TBEV-10R],1.82 A405
14,ATCCGTCACACCTGCTCTGCGTTGGAGTATCTTCCCCGGTGCACTCCGTTCGTGTGGTGTTGGCTCCCGTAT [TBEV-3R],1.91 A405
15,ATCCGTCACACCTGCTCTGGGCCAACGGACGGGATCGCGAGGCTAAGACGTCTCTGGTGTTGGCTCCCGTAT [TBEV-6R],2.12 A405
16,ATCCGTCACACCTGCTCTGTACGTTACTCGCCGATACGGAAGGGCGGTGCCGAGTGGTGTTGGCTCCCGTAT [TBEV-1R],2.15 A405
17,ATCCGTCACACCTGCTCTTAAAGTAGAGGCTGTTCTCCAGACGTCGCGGGAGGATGGTGTTGGCTCCCGTAT [TBEV-7R],1.97 A405
18,ATCCGTCACACCTGCTCTTCCCCTAAACTTTTTTGACCTACCTGTATAATTGGCTGGTGTTGGCTCCCGTAT [TBEV-4R],2.12 A405

# Test system: WNV envelope peptide (West Nile virus)
# Experiment: ELONA
# Details: not given
row,Sequence,binding signal
1,ATACGGGAGCCAACACCACAGCTGATATCGGATGGTCCGGCAGAGCAGGTGTGACGGAT [WNV 19F],2.73 A405
2,ATACGGGAGCCAACACCACCCCGTCGCCAAGCACTTGGCTGGGCTCTAACGGCCAGAGCAGGTGTGACGGAT [WNV 18F],2 A405
3,ATACGGGAGCCAACACCACCCGTGGCCTTCACCCAGCCAGGGGCCCCGTCTCTGAGAGCAGGTGTGACGGAT [WNV 20F],2.54 A405
4,ATACGGGAGCCAACACCATGTCAGGACCTCCATCGCCCGGGCCCGCCGCCGCTGAGAGCAGGTGTGACGGAT [WNV 16F],2.45 A405
5,ATCCGTCACACCTGCTCTCAGAGACGGGGCCCCTGGCTGGGTGAAGGCCACGGGTGGTGTTGGCTCCCGTAT [WNV 20R],2.47 A405
6,ATCCGTCACACCTGCTCTCAGCGGCGGCGGGCCCGGGCGATGGAGGTCCTGACATGGTGTTGGCTCCCGTAT [WNV 16R],2.25 A405
7,ATCCGTCACACCTGCTCTGCCGGACCATCCGATATCAGCTGTGGTGTTGGCTCCCGTAT [WNV 19R],2.18 A405

# Same assay, conditions: also positive in lateral flow (FIG. 9C)
row,Sequence,binding signal
1,ATCCGTCACACCTGCTCTGGCCGTTAGAGCCCAGCCAAGTGCTTGGCGACGGGGTGGTGTTGGCTCCCGTAT [WNV 18R],2.65 A405

# Test system: outer membrane proteins (OMPs) (Rickettsia belli)
# Experiment: ELONA
# Details: not given
row,Sequence,binding signal
1,ATACGGGAGCCAACACCAGCACTGCAGTTAACATTTACGAAGAGGCTTTAATGCAGAGCAGGTGTGACGGAT [R5-39F],1.95 A405
2,ATACGGGAGCCAACACCATAACAAATAACCACCCTCAATGCTAGATAGTGGCTTAGAGCAGGTGTGACGGAT [R5-23F],2.93 A405
3,ATCCGTCACACCTGCTCTAAATAGATCACGCATAATGGCATTAGTATTAGTGTTGGTGTTGGCTCCCGTAT [R5-21bR],1.89 A405

# Test system: outer membrane proteins (OMPs) (Rickettsia conorii)
# Experiment: ELONA
# Details: not given
row,Sequence,binding signal
1,ATACGGGAGCCAACACCAGCACAACTTAAGTGCAAGCAAATTCGGATTAACCAAAGAGCAGGTGTGACGGAT [R4-1F],1.99 A405
2,ATCCGTCACACCTGCTCTCCAGATTTGGTGTTATGCTCTTGTTTGGCTTGGACTTGGTGTTGGCTCCCGTAT [R4-14R],2.05 A405
3,ATCCGTCACACCTGCTCTTTGGTTAATCCGAATTTGCTTGCACTTAAGTTGTGCTGGTGTTGGCTCCCGTAT [R4-1R],2.12 A405

# Test system: outer membrane proteins (OMPs) (Rickettsia parkeri)
# Experiment: ELONA
# Details: not given
row,Sequence,binding signal
1,ATACGGGAGCCAACACCAGAAAATGAATACTTCCCAAGCTTGTCAAGCAAGTAAGAGCAGGTGTGACGGAT [R2-5F],1.95 A405
2,ATACGGGAGCCAACACCATAACGGTTCCCTTAATGCGCTACCCACACTATACAAGAGCAGGTGTGACGGAT [R2-14F],2.08 A405
3,ATCCGTCACACCTGCTCTTTTCCTATGAATGGTAATCAATTAGAGTCTATATCTTGGTGTTGGCTCCCGTAT [R2-17R],2.05 A405

# Test system: outer membrane proteins (OMPs) (Rickettsia rickettsii)
# Experiment: ELONA
# Details: not given
row,Sequence,binding signal
1,ATACGGGAGCCAACACCACACACAGAGCGCCATGGACTCAGTCAGATGTGATGTAGAGCAGGTGTGACGGAT [R3-39F],2.12 A405
2,ATCCGTCACACCTGCTCTACATCACATCTGACTGAGTCCATGGCGCTCTGTGTGTGGTGTTGGCTCCCGTAT [R3-39R],2.05 A405
3,ATCCGTCACACCTGCTCTTTCACTAAGCTGACTTTTCACCTCGTCTTCGTGCCGTGGTGTTGGCTCCCGTAT [R3-40R],1.99 A405

# Test system: outer membrane proteins (OMPs) (Rickettsia typhi)
# Experiment: ELONA
# Details: not given
row,Sequence,binding signal
1,ATACGGGAGCCAACACCACCAACGAATACTACCAGGCCTAGCACAATACACAACAGAGCAGGTGTGACGGAT [R1-27bF],2.62 A405
2,ATCCGTCACACCTGCTCTACAGTTAGAGCTTGCCGTATGCCTTTGTTAACATAATGGTGTTGGCTCCCGTAT [R1-30R],2.85 A405
3,ATCCGTCACACCTGCTCTTGCTTATATTTAATTTTTTTCCCAAACTAGTAAGATTGGTGTTGGCTCCCGTAT [R1-21R],2.88 A405
